The source of these data is patent publication US20230082465A1 (published 2023).

The target in one test is T1, Fibrinogen Fragment D (human, UniProt P02671 124-216; P02675 164-491; P02679 89-437).
T1 chain 1: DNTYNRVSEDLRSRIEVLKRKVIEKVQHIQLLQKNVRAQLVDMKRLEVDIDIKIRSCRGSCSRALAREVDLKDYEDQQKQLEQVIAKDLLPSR
T1 chain 2: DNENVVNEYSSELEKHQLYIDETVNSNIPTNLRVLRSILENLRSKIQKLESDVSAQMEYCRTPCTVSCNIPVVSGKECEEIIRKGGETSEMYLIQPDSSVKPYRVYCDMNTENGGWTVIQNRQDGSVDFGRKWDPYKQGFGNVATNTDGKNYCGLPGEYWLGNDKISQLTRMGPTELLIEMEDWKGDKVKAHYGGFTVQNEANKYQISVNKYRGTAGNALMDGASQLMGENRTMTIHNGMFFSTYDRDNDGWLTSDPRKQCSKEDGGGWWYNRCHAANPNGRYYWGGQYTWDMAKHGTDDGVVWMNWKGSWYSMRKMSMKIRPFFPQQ
T1 chain 3: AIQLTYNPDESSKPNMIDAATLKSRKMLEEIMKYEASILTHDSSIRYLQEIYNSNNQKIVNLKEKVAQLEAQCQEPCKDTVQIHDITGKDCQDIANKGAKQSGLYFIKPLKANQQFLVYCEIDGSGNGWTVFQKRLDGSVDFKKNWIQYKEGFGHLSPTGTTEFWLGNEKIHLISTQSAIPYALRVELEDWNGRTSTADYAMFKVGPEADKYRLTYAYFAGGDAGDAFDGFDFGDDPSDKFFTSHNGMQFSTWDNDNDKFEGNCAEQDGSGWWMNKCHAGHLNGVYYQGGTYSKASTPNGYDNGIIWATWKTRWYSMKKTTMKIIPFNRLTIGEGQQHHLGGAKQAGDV
The experiment in a line: BLI. In general terms: In BLI a coated tip is dipped into the sample, and binding shifts an interference pattern.

The target of a further test is T2, Fragment DD from fibrin (human, UniProt P02671 124-216; P02675 164-491; P02679 89-437).
T2 chain 1: T1 chain 1
T2 chain 2: T1 chain 2
T2 chain 3: T1 chain 3
The experiment in a line: BLI.

B1: recombinant antibody #12 (antibody, V domains shown)
VH: QVQLQQPGAEVVRPGASVKLSCKASGYSFTSYWIHWLKQGPHQGLEWIGRIDPDDSETHYNQKFKDKALLTVDKSSSTAYMQLRSLTSEDSAVYYCARTNWDAWFAYWGQGTLVTVSA
VL: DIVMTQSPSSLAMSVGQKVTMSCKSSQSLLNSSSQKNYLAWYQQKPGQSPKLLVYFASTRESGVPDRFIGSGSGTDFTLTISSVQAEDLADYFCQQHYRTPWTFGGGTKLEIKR
Broadly, the Kd is the constant that tells how readily two partners part at equilibrium. High values mean a looser complex, low ones a tighter complex. Take B1: the values for the Kd with Fibrinogen Fragment D and with Fragment DD from fibrin were 36.8 nM and 0.417 nM, respectively.
